The source of these data is patent US20110076272A1, “THERAPEUTIC METHODS AND COMPOSITIONS” (priority 2009, published 2011).

The subject of test [1] is HFF cells. The test is described as follows: Transwell co-culture of HFF cells with LOXL2-secreting tumor cell lines. Type of test: cell-based, human. Conditions: 72 hours co-culture.
Test [2] concerns MDA-MB-435 established primary tumors. The experiment in a line: MDA-MB-435 established primary tumor xenograft model. Type of test: in vivo, mouse. More on the design: reduction in activated TAFs assessed by aSMA signal / reduction in VEGF signal versus vehicle-treated tumors / reduction in SDF-1/CXCL12 signal / reduction in LOXL2 signal: concentration or dose not given beside the values. Here is the method: To provide growing tumor tissue stock for subsequent orthotopic implantation, five- to six-week-old nude mice (NCr nu/nu) were injected subcutaneously with 2×10^6 MDA-MB-435-GFP cells (Anticancer, Inc., San Diego, Calif.) on the right flank. For this purpose, cultures of MDA-MB-435-GFP cells were harvested and dissociated by trypsinization, washed three times with cold serum-containing medium, and then kept on ice until injection. Cells were injected into the subcutaneous space of the flank of the animal in a total volume of 0.1 ml, within 30 min of harvesting. The nude mice were sacrificed to harvest tumor tissue 4 to 6 weeks after tumor cell injection for surgical orthotopic implantation (SOI) of tumor fragments.
Tumor pieces (˜1 mm^3), extracted from subcutaneously-growing GFP-expressing breast tumors, were implanted by surgical orthotopic implantation (SOI) on the breast of female nude mice (NCr nu/nu). Treatments with AB0023 (anti-LOXL2 monoclonal antibody), M64 (anti-LOX monoclonal antibody) and vehicle (all via intraperitoneal injection) and with Taxotere (by intravenous injection) were initiated when the average primary tumor volume reached 75 mm^3. Mice were administered the antibodies at a dose of 30 mg/kg twice a week for 28 days and Taxotere, at 10 mg/kg, was administered once a week for 3 weeks.
Body weight and tumor size were recorded weekly. At the conclusion of the study, mice were sacrificed by cervical dislocation after being anesthetized with carbon dioxide. Primary breast tumors were imaged, harvested, cut in half symmetrically and snap-frozen for histological and immunohistochemical analyses.
The solutions used for the immunohistochemistry (IHC) protocols were obtained from Biocare Medical (Concord, Calif.) unless otherwise stated. All procedures were performed at room temperature. Slides were fixed with 4% PFA for 10 minutes and were subsequently treated with Peroxidazed-1 (Biocare Medical, Concord, Calif.) for 5 minutes. Then, the slides were background blocked with SNIPER (Biocare Medical, Concord, Calif.) for 10 minutes. Primary antibody (2-5 ug/ml final concentration) was diluted in Da Vinci Green Universal Diluent and applied to slides for 30 minutes. Slides were then rinsed in PBS-Tween-20. The Mach2 polymer kit was used for antigen detection by adding rabbit probe for 30 minutes. DAB chromagen was added to the slides for 3-5 minutes, then slides were rinsed once with deionized water. The slides were then counter-stained with hematoxylin, followed by dehydration with graded alcohol. The slides were mounted with entellan mounting medium (Electron Microscopy Sciences, Hatfield, Pa.).

Test [3] has as its system purified recombinant human LOXL2. The test is described as follows: Amplex Red assay of LOXL2 enzymatic activity. The class given is biochemical. The protocol: (§1) A mouse anti-human LOXL2 antibody (AB0023) was obtained by immunization with full-length LOXL2 protein and purified by SEC-HPLC (Tosoh TSKGEL G3000SWXL 7.8×300). Analytical size exclusion chromatography was used to assess antibody stability and purity. Purified AB0023 was run on SDS-PAGE Coomassie (Invitrogen BT 4-12% Gels) reducing and non-reducing gels to assess purity. Potency was examined by ELISA to determine Kd, and effect on LOXL2 enzymatic activity was determined using an Amplex Red Assay (Molecular Probes/Invitrogen, Carlsbad, Calif.). Antibody concentration was measured by absorbance at 280 nm using an Extinction Coefficient Abs 0.1% of 1.4. Identity was assayed by isoelectric focusing (Invitrogen pH 3-10 IEF Gels). For safety analysis, endotoxin levels were measured at a sensitivity range of 0.01-1 EU/ml (Charles River EndoSafe PTS).

Test [4] deals with MDA-MB-231 cells. The test is described as follows: Disseminated bone metastasis model, MDA-MB-231 cells injected in the left ventricle. The class given is in vivo, mouse. Here is the method:
The therapeutic consequences of inhibiting either LOXL2 or LOX were assessed in a model of disseminated bone metastasis. Specific antibodies targeting LOXL2 or LOX were used to treat mice injected in the left ventricle with ˜1 million labeled MDA-MB-231 cells. The breast tumor cell line MDA-MB-231 has been widely used as a model to study LOX, and expresses all 5 lysyl oxidase-type enzymes (FIG. 11, panel A). The ability of LOXL2 inhibitory antibody AB0023 to reduce tumor burden was compared to LOX-specific antibody M64, which is a monoclonal antibody targeting the same peptide sequence in the LOX enzymatic domain previously described as generating an inhibitory polyclonal antiserum.

Test [5] deals with T1, LOXL2 (Homo sapiens, UniProt Q9Y4K0).
T1 sequence (Q9Y4K0 26-774): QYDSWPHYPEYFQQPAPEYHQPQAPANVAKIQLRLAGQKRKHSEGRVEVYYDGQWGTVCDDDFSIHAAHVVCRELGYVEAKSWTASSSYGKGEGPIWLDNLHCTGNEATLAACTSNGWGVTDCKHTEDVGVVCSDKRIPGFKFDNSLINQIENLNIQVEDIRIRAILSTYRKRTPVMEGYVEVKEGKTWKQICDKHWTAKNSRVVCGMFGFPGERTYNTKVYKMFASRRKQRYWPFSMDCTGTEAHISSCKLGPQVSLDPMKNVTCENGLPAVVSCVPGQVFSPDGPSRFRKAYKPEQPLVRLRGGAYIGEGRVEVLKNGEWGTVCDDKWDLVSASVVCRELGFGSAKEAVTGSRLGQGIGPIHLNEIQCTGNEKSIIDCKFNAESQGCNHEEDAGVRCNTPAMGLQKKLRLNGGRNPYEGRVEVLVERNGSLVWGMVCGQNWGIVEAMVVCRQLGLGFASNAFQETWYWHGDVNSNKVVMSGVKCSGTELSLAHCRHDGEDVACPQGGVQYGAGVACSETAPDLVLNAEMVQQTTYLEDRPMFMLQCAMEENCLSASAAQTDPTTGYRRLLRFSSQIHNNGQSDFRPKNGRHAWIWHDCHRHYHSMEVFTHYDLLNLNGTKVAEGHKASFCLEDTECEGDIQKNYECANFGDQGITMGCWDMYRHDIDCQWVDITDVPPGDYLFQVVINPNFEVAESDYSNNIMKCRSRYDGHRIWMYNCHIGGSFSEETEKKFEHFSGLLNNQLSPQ
The test is described as follows: Western blot analysis and ELISA of AB0023 specificity. Type of test: binding. The protocol:
as §1

Where [6] appears, read: antibodies 30 mg/kg i.p. twice a week.
Where [7] appears, read: tissue-based ELISA, fibroblasts and tumor cells.

B1: AB0023: mouse anti-human LOXL2 monoclonal antibody; heavy chain variable region SEQ ID NO:1, light chain variable region SEQ ID NO:2 (antibody, listed as Mus musculus, V domains shown)
VH: MEWSRVFIFLLSVTAGVHSQVQLQQSGAELVRPGTSVKVSCKASGYAFTYYLIEWVKQRPGQGLEWIGVINPGSGGTNYNEKFKGKATLTADKSSSTAYMQLSSLTSDDSAVYFCARNWMNFDYWGQGTTLTVSS
VL: MRCLAEFLGLLVLWIPGAIGDIVMTQAAPSVSVTPGESVSISCRSSKSLLHSNGNTYLYWFLQRPGQSPQFLIYRMSNLASGVPDRFSGSGSGTAFTLRISRVEAEDVGVYYCMQHLEYPYTFGGGTKLEIK
modifications: Heavy chain; Light chain
Regarding B1, in test [1], the “reduction in VEGF protein expression” value was 39-46%, the “reduction in α-SMA levels” value is given as 41% and the “relative decrease in pSMAD2 phosphorylation” value was 56-94%. In addition, the “abundance of fibroblasts in tumors versus vehicle” value in test [2] (H&E staining and other markers) was “less abundant overall”. Besides, in test [2] (H&E, TNF-α IHC), the necrosis in tumors result was “significant regions of necrosis”. In addition, in test [2] (IHC of tumors), the “reduction in LOXL2 signal” value is reported as 55%, the “reduction in SDF-1/CXCL12 signal” value was 80% and the “reduction in VEGF signal versus vehicle-treated tumors” value was 76%. Also, in test [2] (setting [6]), the “decrease in tumor volume at week 3” value is given as 45% and the “decrease in tumor volume at week 5” value is given as 33%. For the same molecule, in test [2] (mouse, in vivo), the “levels of Beclin-1 (autophagy) in tumor cells” value is reported as “increased”; the “pyknosis, reduced viability of tumor cells” value is “pyknosis and increased cytoplasmic condensation of nuclei”. In addition, in test [2] (setting [7]), the “levels of TGF-β1” value is “reduced” and the “levels of phosphorylated SMAD2” value is “reduced”. Moreover, the “levels of connective tissue growth factor (CTGF)” value in test [2] (tumor tissue) is on record as “reduced”. In test [2] (tumors harvested at day 39), the “reduction in Sirius red staining (crosslinked collagen, desmoplasia)” value is given as 61%; the “reduction in activated TAFs assessed by aSMA signal” value is 88%; the “reduction in tumor vasculature, CD31 signal” value was determined as 74%. Besides, the “mode of inhibition of LOXL2” value in test [3] was “non-competitive allosteric inhibitors”. Moreover, the “inhibition of LOXL2 enzymatic activity” value in test [3] (in vitro) is recorded as “inhibits”. Also, the “reduction in tumor cell burden in the femurs, by median value” in test [4] (day 28, p=0.0021) stood at 127 fold. In addition, in test [4] (day 28, p=0.0197), the “reduction in tumor cell burden in total ventral bone, by median value” was determined as 28 fold. Also, the survival entry in test [4] (separate study, 30 mg/kg AB0023 twice weekly in combination with 5 mg/kg Paclitaxel once per week, p=0.025) is reported as “significant survival benefit”. In addition, in test [5], the “cross-reactivity with other lysyl oxidase-type enzymes” value is “no cross-reactivity”.
